According to paper PMC10118082 (PLOS ONE, 2023):
Several values for one entry are separate records, joined by “and”; a condition that tells them apart may be missing. Identical values can stand only once.

What was measured:
[1] = molecular target: T1, human complement component 5 (C5) (Homo sapiens, UniProt P01031); experiment: cell-based or functional assay
[2] = molecular target: T1, human complement component 5 (C5); experiment: SEC-MALS; antibody (700 nM) plus C5 (400 nM) incubated about 30 min at room temperature in PBS; Bio SEC-5 1000 A column run in PBS; no eculizumab; conditions: both partners purified

stoichiometry N [2]: 1 C5 per TPP-2799 and 2 C5 per TPP-2799
B1: mAb TPP-2799 (antibody, V domains shown)
VH: QVQLVESGGGLVQPGRSLRLSCAASGFTVHSSYYMAWVRQAPGKGLEWVGAIFTGSGAEYKAEWAKGRVTISKDTSKNQVVLTMTNMDPVDTATYYCASDAGYDYPTHAMHYWGQGTLVTVSS
VL: DIQMTQSPSSLSASVGDRVTITCRASQGISSSLAWYQQKPGKAPKLLIYGASETESGVPSRFSGSGSGTDFTLTISSLQPEDFATYYCQNTKVGSSYGNTFGGGTKVEIK
notes: heavy chain of Chugai mAb RO7112689 (crovalimab) as described in CAS Registry Number 1917321-26-6; light chain of Chugai mAb RO7112689 (crovalimab) as described in CAS Registry Number 1917321-26-6; MALS mass alone 154 kDa; also called RO7112689; source: Expi293, transiently expressed, purified (MabSelect SuRe); copies: 2 + 2
IC50 of inhibition of classical-pathway hemolysis of antibody-sensitized chicken red blood cells in 20% (v/v) human serum [1]: 30 nM
